The text below walks through data of article PMC4486934.

The series relates to var2CSA (PfEMP1) (Plasmodium falciparum CS2). The experiment in a line: cell binding, microfluidic partitioning and qPCR. The note with it: 2'-fluoro pyrimidines, TBB: 20 mM HEPES pH 7.4, 150 mM NaCl, 2 mM CaCl2, room temperature (cell binding); for binding signal: CS2 vs uninfected RBCs.

“GGGAGCUCAGAAUAAACGCUCAAAUGUCUCCAGCUCUUGUGGCGAACCCAAGCGGGUUGACCAGAAUGCAUCAUUCGACAUGAGGCCCGGAUCCGGC [scr8.1-1]”: where the note is “defines non-specific threshold, BLI in TBB”, the binding signal was 1.24 ddCp.

Regarding “GGGAGCUCAGAAUAAACGCUCAACAACGGAUCACACGCAAGCGAAUCUAUGUCCUUCGGGUCUAAGGGUCGCUUUCGACAUGAGGCCCGGAUCCGGC [8.1-1]”, the binding signal (100 nM, P = 0.0002, BLI in …) came out at 3.12 ddCp. Moreover, the Kd (apparent Kd on CS2 infected RBCs, no enrichment on DC-J, BLI in TBB) is 14 nM.
